# Data: PMC6335420, “The cell cycle regulator GpsB functions as cytosolic adaptor for multiple cell wall enzymes” (Nature Communications, 2019)
# Changes are numbered by the printed parent chain. Residues, ends and D or L forms follow the SMILES beside them. *: point of attachment. Fluorescein(5-Mal) = O=C1OC2(c3ccc(O)cc3Oc3cc(O)ccc32)c2ccc(N3C(=O)CC(*)C3=O)cc21; X1 = CN(C)c1ccc2c(-c3ccc(N4C(=O)CC(*)C4=O)cc3C(=O)[O-])c3ccc(=[N+](C)C)cc-3oc2c1; 5FAM = O=C1OC2(c3ccc(O)cc3Oc3cc(O)ccc32)c2ccc(C(=O)*)cc21
# T1: BsPBP1_(1-32), TAMRA-labelled at position 16 (B. subtilis, UniProt P39793 1-32, Ser16Cys, TAMRA (maleimide) at position 16)
# T1 construct: PBP1, Bacillus subtilis, residues 1-32; also called BsPBPA1_(1-32); BsPBP1A_(1-32); source: E. coli, His-tagged MBP fusion purified (Ni-NTA), labelled, TEV-cleaved, ultrafiltration
# T1 peptide (looked up): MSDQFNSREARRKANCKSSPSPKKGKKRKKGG
# B1: BsGpsB_(1-68)^Asp35Ala (domain or fragment, B. subtilis, UniProt P0CI74 1-68, looked up)
# chain: MLADKVKLSAKEILEKEFKTGVRGYKQEDVDKFLAMIIKDYETFHQEIEELQQENLQLKKQLEEASKK
# notes: GpsB, Bacillus subtilis, residues 1-68; source: E. coli, purified (Ni-NTA, thrombin, size exclusion)
# B2: BsGpsB^Tyr25Phe: BsGpsB1-68 variant (protein)
# chain: B1 chain with Y25F, A35D
# modifications: left off: His6, end not stated, cleaved
# notes: BsGpsB1-68 variant
# B3: BsGpsB1-68^Asp35Ala: BsGpsB1-68 variant (protein)
# chain: B1 chain
# modifications: left off: His6, N-terminal, cleaved
# notes: BsGpsB1-68 variant
# B4: BsGpsB1-68^Asp31Ala: BsGpsB1-68 variant (protein)
# chain: B1 chain with D31A, A35D
# modifications: left off: His6, N-terminal, cleaved
# notes: BsGpsB1-68 variant
# B5: BsGpsB1-68^Glu17Ala: BsGpsB1-68 variant (protein)
# chain: B1 chain with E17A, A35D
# modifications: left off: His6, N-terminal, cleaved
# notes: BsGpsB1-68 variant
# B6: BsGpsB_(1-68)^Glu17Ala (domain or fragment, B. subtilis, UniProt P0CI74 1-68, looked up)
# chain: B1 chain with E17A, A35D
# notes: as for B1
# Legend:
# SpGpsB1-63 = biological target: T2, SpGpsB1-63 (Streptococcus pneumoniae, UniProt Q8DR57); experiment: Fluorescence polarisation binding to SpGpsB1-63; details: FP
# T2 construct: The SpGpsB1-63 expression construct (pET28SpGpsB1-63) was prepared by PCR amplification of gpsB; His6 (N, cleaved yes); made in house; host or cells: E. coli BL21(DE3)
# T2 sequence (Q8DR57 1-63): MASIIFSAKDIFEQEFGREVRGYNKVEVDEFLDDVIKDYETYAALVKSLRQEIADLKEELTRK
# Source text: (§1) 75 the BsGpsB5-64:BsPBP11-17 complex.
# BsGpsB1-68Lys32Glu = biological target: T3, BsGpsB1-68Lys32Glu (Bacillus subtilis, UniProt P0CI74, K32E); experiment: Fluorescence polarisation binding to BsGpsB1-68Lys32Glu; details: FP, relative to wild-type LmPBPA1 peptide
# T3 construct: His6 (N, cleaved yes); made in house; host or cells: E. coli BL21(DE3)
# T3 sequence (P0CI74 1-68 K32E): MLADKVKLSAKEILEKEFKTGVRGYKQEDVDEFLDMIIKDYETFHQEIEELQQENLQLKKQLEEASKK
# Source text: as §1
# [1] = biological target: T1, BsPBP1_(1-32), TAMRA-labelled at …; experiment: fluorescence polarisation; GpsB protein titrated into fluorescently labelled peptide; 10 mM Tris.HCl pH 8.0, 250 mM NaCl, 0.1% reduced Triton X-100; fit to a 1:1 interaction model; details: both partners purified
# [2] = Circular dichroism thermal unfolding of BsGpsB1-68 variants; format: physicochemical; details: CD at 222 nm vs temperature, 4.5 μM protein, 20 mM sodium phosphate (pH 7.8) 150 mM NaCl, 1 °C/min
# Method: CD spectra were recorded on a JASCO J-810 spectropolarimeter with a PTC-4235 Peltier temperature controller using 1 mm path length quartz cuvettes. For full wavelength scans a scan speed of 10 nm^−1min^−1 and a response time of 4 s were used, the final spectra were the average of at least four measurements. BsPBP1_1-32 CD spectra were recorded at 4 °C in a buffer of 20 mM sodium phosphate, pH 7.3 at a peptide concentration of 25 μM. Peptide helical contents were estimated from molar ellipticities at 222 nm using the equation helix = [θ]222 nm / (39,500(1–2.57/n))[78] where n is the number of residues in the peptide. LmPBPA1_1-15 CD spectra were analysed at 40 μM in 20 mM sodium phosphate buffer, pH 7.8, for samples containing 0, 40 and 60% trifluoroethanol (TFE). For samples containing 80% TFE, 5 mM sodium phosphate buffer, pH 7.8, was used. The CD spectra of BsGpsB1-68 proteins were measured at a concentration of 4.5 μM in a buffer of 20 mM sodium phosphate (pH 7.8) 150 mM NaCl. For thermal melt experiments, a response time of 8 s and scan rate of 1 °C^−1min^−1 were used. All thermal melts were reversible as CD spectra recorded before and after the melts in the wavelength range 200–240 nm could be superimposed.
molecule,measurement,setting,value
CC[C@H](C)[C@H](NC(=O)[C@@H]1CCCN1C(=O)[C@H](CSC1CC(=O)N(c2ccc(-c3c4ccc(=[N+](C)C)cc-4oc4cc(N(C)C)ccc34)c(C(=O)[O-])c2)C1=O)NC(=O)[C@@H](NC(=O)[C@H](CCC(N)=O)NC(=O)[C@H](C)NC(=O)[C@H](CC(C)C)NC(=O)[C@H](CCCCN)NC(=O)[C@H](CCCCN)NC(=O)[C@H](CCCNC(=N)N)NC(=O)[C@H](CC(=O)O)NC(=O)[C@H](CO)NC(=O)[C@H](CCCNC(=N)N)NC(=O)[C@H](CO)NC(=O)[C@H](CCCCN)NC(=O)[C@H](CCCNC(=N)N)NC(=O)[C@H](CC(C)C)NC(=O)[C@@H](NC(=O)[C@@H](NC(=O)[C@H](CO)NC(=O)[C@H](CC(=O)O)NC(=O)[C@H](CO)NC(=O)[C@H](CC(=O)O)NC(=O)[C@H](CCSC)NC(=O)[C@H](CO)NC(=O)CN)[C@@H](C)O)[C@@H](C)CC)C(C)C)C(=O)O (stereo partly shown) [TAMRA-SpPBP2a23-45 Arg31Lys] (H-GSMDSDSTILRKSRSDRKKLAQVC(X1)PI-OH),reduction in affinity for SpGpsB1-63,SpGpsB1-63; relative to wild-type SpPBP2a23-45,2 fold
CSCC[C@H](NC(=O)[C@H](CO)NC(=O)CN)C(=O)N[C@@H](C)C(=O)N[C@@H](CC(=O)O)C(=O)N[C@@H](CCCCN)C(=O)N1CCC[C@H]1C(=O)N[C@@H](CCC(N)=O)C(=O)N[C@H](C(=O)N[C@@H](C)C(=O)N[C@@H](CO)C(=O)N[C@@H](CCC(N)=O)C(=O)N[C@@H](Cc1ccc(O)cc1)C(=O)N[C@@H](CCCNC(=N)N)C(=O)N[C@@H](CC(N)=O)C(=O)N[C@@H](CCCCN)C(=O)N[C@@H](CCC(N)=O)C(=O)N[C@@H](CCCNC(=N)N)C(=O)NCC(=O)NCC(=O)N[C@@H](CSC1CC(=O)N(c2ccc3c(c2)C(=O)OC32c3ccc(O)cc3Oc3cc(O)ccc32)C1=O)C(=O)N[C@@H](CCCCN)C(=O)O)[C@@H](C)O (stereo partly shown) [Fluorescein-LmPBPA11-20 Arg8AlaSer16Arg] (H-GSMADKPQTASQYRNKQRGGC(Fluorescein(5-Mal))K-OH; N-terminus and C-terminus assumed),reduction in affinity for BsGpsB1-68Lys32Glu,BsGpsB1-68Lys32Glu,at least 10 fold
CC[C@H](C)[C@H](NC(=O)[C@H](CC(C)C)NC(=O)[C@H](CCCNC(=N)N)NC(=O)[C@H](CCSC)NC(=O)CNC(=O)c1ccc2c(c1)C(=O)OC21c2ccc(O)cc2Oc2cc(O)ccc21)C(=O)N[C@@H](CS)C(=O)N[C@@H](CCSC)C(=O)N[C@@H](CCCNC(=N)N)C(=O)N[C@@H](CCCCN)C(=O)N[C@@H](Cc1ccccc1)C(=O)N[C@@H](CC(N)=O)C(=O)N[C@@H](CO)C(=O)N[C@@H](Cc1c[nH]cn1)C(=O)N[C@@H](CO)C(=O)N[C@H](C(=O)N1CCC[C@H]1C(=O)N[C@H](C(=O)N[C@@H](CCCNC(=N)N)C(=O)O)[C@@H](C)CC)[C@@H](C)CC [Fluorescein-SpPBP2b1-17] (5FAM-GMRLICMRKFNSHSIPIR-OH; N-terminus and C-terminus assumed),binding to SpGpsB1-63 (in words),SpGpsB1-63,not
CC[C@H](C)[C@H](NC(=O)[C@@H](NC(=O)[C@H](CCCNC(=N)N)NC(=O)[C@H](CCCCN)NC(=O)[C@@H](NC(=O)[C@H](Cc1c[nH]c2ccccc12)NC(=O)[C@H](CCC(=O)O)NC(=O)[C@H](CCSC)NC(=O)CNC(=O)[C@H](CO)NC(=O)CNC(=O)[C@H](CO)NC(=O)CN)[C@@H](C)O)C(C)C)C(=O)N[C@@H](CCCNC(=N)N)C(=O)N[C@@H](Cc1ccc(O)cc1)C(=O)N[C@@H](C)C(=O)N[C@H](C(=O)N[C@@H](CCCCN)C(=O)N[C@@H](CC(N)=O)C(=O)N[C@@H](CCCNC(=N)N)C(=O)N[C@@H](CCCCN)C(=O)N[C@@H](CO)C(=O)N1CCC[C@H]1C(=O)N[C@@H](C)C(=O)N[C@@H](CCC(=O)O)C(=O)N[C@@H](CC(N)=O)C(=O)N[C@@H](CCCNC(=N)N)C(=O)N[C@@H](CCCNC(=N)N)C(=O)N[C@@H](CCCNC(=N)N)C(=O)N[C@H](C(=O)NCC(=O)N[C@@H](CCCCN)C(=O)N[C@@H](CO)C(=O)N[C@@H](CC(C)C)C(=O)N[C@@H](CSC1CC(=O)N(c2ccc3c(c2)C(=O)OC32c3ccc(O)cc3Oc3cc(O)ccc32)C1=O)C(=O)N[C@@H](CO)C(=O)O)C(C)C)[C@@H](C)O (stereo partly shown) [Fluorescein-SpPBP2x1-29] (H-GSGSGMEWTKRVIRYATKNRKSPAENRRRVGKSLC(Fluorescein(5-Mal))S-OH; N-terminus and C-terminus assumed),binding to SpGpsB1-63 (in words),SpGpsB1-63,interacts
B1,fold reduction in affinity against wild type,[1],> 8 fold
B2,impact of mutation on protein stability,[2],little impact on protein stability
B3,impact of mutation on protein stability,[2],little impact on protein stability
B4,impact of mutation on protein stability,[2],little impact on protein stability
B5,impact of mutation on protein stability,[2],little impact on protein stability
B6,fold reduction in affinity against wild type,[1],> 8 fold
